{"source": "patent US20160160255A1", "about": "“Methods and Materials for Producing 6-Carbon Monomers” (INVISTA North America S.á.r.l., priority 2014, published 2016)", "molecules": {"B1": {"name": "SEQ ID NO 12: Vibrio fluvialis ω-transaminase, Genbank Accession No. AEA39183.1, N-terminal His-tagged (protein, listed as Vibrio fluvialis)", "chain": "MNKPQSWEARAETYSLYGFTDMPSLHQRGTVVVTHGEGPYIVDVNGRRYLDANSGLWNMVAGFDHKGLIDAAKAQYERFPGYHAFFGRMSDQTVMLSEKLVEVSPFDSGRVFYTNSGSEANDTMVKMLWFLHAAEGKPQKRKILTRWNAYHGVTAVSASMTGKPYNSVFGLPLPGFVHLTCPHYWRYGEEGETEEQFVARLARELEETIQREGADTIAGFFAEPVMGAGGVIPPAKGYFQAILPILRKYDIPVISDEVICGFGRTGNTWGCVTYDFTPDAIISSKNLTAGFFPMGAVILGPELSKRLETAIEAIEEFPHGFTASGHPVGCAIALKAIDVVMNEGLAENVRRLAPRFEERLKHIAERPNIGEYRGIGFMWALEAVKDKASKTPFDGNLSVSERIANTCTDLGLICRPLGQSVVLCPPFILTEAQMDEMFDKLEKALDKVFAEVA", "modifications": "N-terminal His tag"}, "B2": {"name": "SEQ ID NO 7: Chromobacterium violaceum ω-transaminase, Genbank Accession No. AAQ59697.1, N-terminal His-tagged (protein, listed as Chromobacterium violaceum)", "chain": "MQKQRTTSQWRELDAAHHLHPFTDTASLNQAGARVMTRGEGVYLWDSEGNKIIDGMAGLWCVNVGYGRKDFAEAARRQMEELPFYNTFFKTTHPAVVELSSLLAEVTPAGFDRVFYTNSGSESVDTMIRMVRRYWDVQGKPEKKTLIGRWNGYHGSTIGGASLGGMKYMHEQGDLPIPGMAHIEQPWWYKHGKDMTPDEFGVVAARWLEEKILEIGADKVAAFVGEPIQGAGGVIVPPATYWPEIERICRKYDVLLVADEVICGFGRTGEWFGHQHFGFQPDLFTAAKGLSSGYLPIGAVFVGKRVAEGLIAGGDFNHGFTYSGHPVCAAVAHANVAALRDEGIVQRVKDDIGPYMQKRWRETFSRFEHVDDVRGVGMVQAFTLVKNKAKRELFPDFGEIGTLCRDIFFRNNLIMRACGDHIVSAPPLVMTRAEVDEMLAVAERCLEEFEQTLKARGLA", "modifications": "N-terminal His tag"}, "B3": {"name": "SEQ ID NO 6: Segniliparus rotundus carboxylate reductase, Genbank Accession No. ADG98140.1, N-terminal His-tagged (protein, listed as Segniliparus rotundus)", "chain": "MTQSHTQGPQASAAHSRLARRAAELLATDPQAAATLPDPEVVRQATRPGLRLAERVDAILSGYADRPALGQRSFQTVKDPITGRSSVELLPTFDTITYRELRERATAIASDLAHHPQAPAKPGDFLASIGFISVDYVAIDIAGVFAGLTAVPLQTGATLATLTAITAETAPTLFAASIEHLPTAVDAVLATPSVRRLLVFDYRAGSDEDREAVEAAKRKIADAGSSVLVDVLDEVIARGKSAPKAPLPPATDAGDDSLSLLIYTSGSTGTPKGAMYPERNVAHFWGGVWAAAFDEDAAPPVPAINITFLPLSHVASRLSLMPTLARGGLMHFVAKSDLSTLFEDLKLARPTNLFLVPRVVEMLYQHYQSELDRRGVQDGTREAEAVKDDLRTGLLGGRILTAGFGSAPLSAELAGFIESLLQIHLVDGYGSTEAGPVWRDGYLVKPPVTDYKLIDVPELGYFSTDSPHPRGELAIKTQTILPGYYKRPETTAEVFDEDGFYLTGDVVAQIGPEQFAYVDRRKNVLKLSQGEFVTLAKLEAAYSSSPLVRQLFVYGSSERSYLLAVIVPTPDALKKFGVGEAAKAALGESLQKIARDEGLQSYEVPRDFIIETDPFTVENGLLSDARKSLRPKLKEHYGERLEAMYKELADGQANELRDIRRGVQQRPTLETVRRAAAAMLGASAAEIKPDAHFTDLGGDSLSALTFSNFLHDLFEVDVPVGVIVSAANTLGSVAEHIDAQLAGGRARPTFATVHGKGSTTIKASDLTLDKFIDEQTLEAAKHLPKPADPPRTVLLTGANGWLGRFLALEWLERLAPAGGKLITIVRGKDAAQAKARLDAAYESGDPKLAGHYQDLAATTLEVLAGDFSEPRLGLDEATWNRLADEVDFISHPGALVNHVLPYNQLFGPNVAGVAEIIKLAITTRIKPVTYLSTVAVAAGVEPSALDEDGDIRTVSAERSVDEGYANGYGNSKWGGEVLLREAHDRTGLPVRVFRSDMILAHQKYTGQVNATDQFTRLVQSLLATGLAPKSFYELDAQGNRQRAHYDGIPVDFTAESITTLGGDGLEGYRSYNVFNPHRDGVGLDEFVDWLIEAGHPITRIDDYDQWLSRFETSLRGLPESKRQASVLPLLHAFARPGPAVDGSPFRNTVFRTDVQKAKIGAEHDIPHLGKALVLKYADDIKQLGLL", "modifications": "N-terminal His tag"}, "B4": {"name": "SEQ ID NO 9: Pseudomonas syringae ω-transaminase, Genbank Accession No. AAY39893.1, N-terminal His-tagged (protein, listed as Pseudomonas syringae)", "chain": "MSANNPQTLEWQALSSEHHLAPFSDYKQLKEKGPRIITRAEGVYLWDSEGNKILDGMSGLWCVAIGYGREELADAASKQMRELPYYNLFFQTAHPPVLELAKAISDIAPEGMNHVFFTGSGSEGNDTMLRMVRHYWALKGQPNKKTIISRVNGYHGSTVAGASLGGMTYMHEQGDLPIPGVVHIPQPYWFGEGGDMTPDEFGIWAAEQLEKKILELGVENVGAFIAEPIQGAGGVIVPPDSYWPKIKEILSRYDILFAADEVICGFGRTSEWFGSDFYGLRPDMMTIAKGLTSGYVPMGGLIVRDEIVAVLNEGGDFNHGFTYSGHPVAAAVALENIRILREEKIVERVRSETAPYLQKRLRELSDHPLVGEVRGVGLLGAIELVKDKTTRERYTDKGAGMICRTFCFDNGLIMRAVGDTMIIAPPLVISFAQIDELVEKARTCLDLTLAVLQG", "modifications": "N-terminal His tag"}, "B5": {"name": "SEQ ID NO 8: Pseudomonas aeruginosa ω-transaminase, Genbank Accession No. AAG08191.1, N-terminal His-tagged (protein, listed as Pseudomonas aeruginosa)", "chain": "MNARLHATSPLGDADLVRADQAHYMHGYHVFDDHRVNGSLNIAAGDGAYIYDTAGNRYLDAVGGMWCTNIGLGREEMARTVAEQTRLLAYSNPFCDMANPRAIELCRKLAELAPGDLDHVFLTTGGSTAVDTAIRLMHYYQNCRGKRAKKHVITRINAYHGSTFLGMSLGGKSADRPAEFDFLDERIHHLACPYYYRAPEGLGEAEFLDGLVDEFERKILELGADRVGAFISEPVFGSGGVIVPPAGYHRRMWELCQRYDVLYISDEVVTSFGRLGHFFASQAVFGVQPDIILTAKGLTSGYQPLGACIFSRRIWEVIAEPDKGRCFSHGFTYSGHPVACAAALKNIEIIEREGLLAHADEVGRYFEERLQSLRDLPIVGDVRGMRFMACVEFVADKASKALFPESLNIGEWVHLRAQKRGLLVRPIVHLNVMSPPLILTREQVDTVVRVLRESIEETVEDLVRAGHR", "modifications": "N-terminal His tag"}}, "assay_type_in_all_cases": "biochemical", "key": {"[1]": {"assay": "ω-transaminase activity, adipate semialdehyde to 6-aminohexanoate (forward direction)", "conditions": "cell free extract, 10 mM adipate semialdehyde, 10 mM L-alanine, pH 7.5, 25° C., 4 h, RP-HPLC", "description": "(§1) A nucleotide sequence encoding a His-tag was added to the nucleic acid sequences from Chromobacterium violaceum, Pseudomonas aeruginosa, Pseudomonas syringae, Rhodobacter sphaeroides, and Vibrio fluvialis encoding the ω-transaminases of SEQ ID NOs: 7, 8, 9, 10 and 12, respectively (see FIG. 6) such that N-terminal HIS tagged ω-transaminases could be produced. Each of the resulting modified genes was cloned into a pET21a expression vector under control of the T7 promoter and each expression vector was transformed into a BL21[DE3] E. coli host. The resulting recombinant E. coli strains were cultivated at 37° C. in a 250 mL shake flask culture containing 50 mL LB media and antibiotic selection pressure, with shaking at 230 rpm. Each culture was induced overnight at 16° C. using 1 mM IPTG.\n(§2) The pellet from each induced shake flask culture was harvested via centrifugation. Each pellet was resuspended and lysed via sonication. The cell debris was separated from the supernatant via centrifugation and the cell free extract was used immediately in enzyme activity assays.\nEnzyme activity in the forward direction (i.e., adipate semialdehyde to 6-aminohexanoate) was confirmed for the transaminases of SEQ ID NO 7, SEQ ID NO 8, SEQ ID NO 9, SEQ ID NO 10 and SEQ ID NO 12. Enzyme activity assays were performed in a buffer composed of a final concentration of 50 mM HEPES buffer (pH=7.5), 10 mM adipate semialdehyde, 10 mM L-alanine and 100 μM pyridoxyl 5′ phosphate. Each enzyme activity assay reaction was initiated by adding a cell free extract of the ω-transaminase gene product or the empty vector control to the assay buffer containing the adipate semialdehyde and incubated at 25° C. for 4 h, with shaking at 250 rpm. The formation of pyruvate was quantified via RP-HPLC."}, "[2]": {"assay": "ω-transaminase activity, 6-aminohexanoate to adipate semialdehyde (reverse direction)", "conditions": "cell free extract, 10 mM 6-aminohexanoate, 10 mM pyruvate, pH 7.5, 25° C., 24 h, RP-HPLC", "description": "as §1, §2\nEnzyme activity assays in the reverse direction (i.e., 6-aminohexanoate to adipate semialdehyde) were performed in a buffer composed of a final concentration of 50 mM HEPES buffer (pH=7.5), 10 mM 6-aminohexanoate, 10 mM pyruvate and 100 μM pyridoxyl 5′ phosphate. Each enzyme activity assay reaction was initiated by adding cell free extract of the ω-transaminase gene product or the empty vector control to the assay buffer containing the 6-aminohexanoate and incubated at 25° C. for 24 h, with shaking at 250 rpm. The formation of L-alanine from pyruvate was quantified via RP-HPLC."}, "[3]": {"assay": "carboxylate reductase activity, adipate semialdehyde to hexanedial", "conditions": "purified enzyme with sfp phosphopantetheine transferase, 2 mM adipate semialdehyde, pH 7.5, room temperature, 20 min", "description": "The N-terminal His-tagged carboxylate reductase of SEQ ID NO 6 (see Example 2 and FIG. 6) was assayed using adipate semialdehyde as substrate. The enzyme activity assay was performed in triplicate in a buffer composed of a final concentration of 50 mM HEPES buffer (pH=7.5), 2 mM adipate semialdehyde, 10 mM MgCl2, 1 mM ATP and 1 mM NADPH. The enzyme activity assay reaction was initiated by adding purified carboxylate reductase and phosphopantetheine transferase or the empty vector control to the assay buffer containing the adipate semialdehyde and then incubated at room temperature for 20 min. The consumption of NADPH was monitored by absorbance at 340 nm."}}}
{"molecule": "SEQ ID NO 10: Rhodobacter sphaeroides ω-transaminase, Genbank Accession No. ABA81135.1, N-terminal His-tagged", "values": [{"measurement": "acceptance of adipate semialdehyde as substrate (conversion of L-alanine to pyruvate vs empty vector control)", "setting": "[1]", "value": "accepted adipate semialdehyde as substrate"}, {"measurement": "acceptance of 6-aminohexanoate as substrate (conversion of pyruvate to L-alanine vs empty vector control)", "setting": "[2]", "value": "accepted 6-aminohexanote as substrate"}]}
{"molecule": "B1", "values": [{"measurement": "acceptance of adipate semialdehyde as substrate (conversion of L-alanine to pyruvate vs empty vector control)", "setting": "[1]", "value": "accepted adipate semialdehyde as substrate"}, {"measurement": "acceptance of 6-aminohexanoate as substrate (conversion of pyruvate to L-alanine vs empty vector control)", "setting": "[2]", "value": "accepted 6-aminohexanote as substrate"}]}
{"molecule": "B2", "values": [{"measurement": "acceptance of adipate semialdehyde as substrate (conversion of L-alanine to pyruvate vs empty vector control)", "setting": "[1]", "value": "accepted adipate semialdehyde as substrate"}, {"measurement": "acceptance of 6-aminohexanoate as substrate (conversion of pyruvate to L-alanine vs empty vector control)", "setting": "[2]", "value": "accepted 6-aminohexanote as substrate"}]}
{"molecule": "B3", "values": [{"measurement": "acceptance of adipate semialdehyde as substrate (NADPH consumption, absorbance at 340 nm, vs empty vector control)", "setting": "[3]", "value": "accepted adipate semialdehyde as substrate"}]}
{"molecule": "B4", "values": [{"measurement": "acceptance of adipate semialdehyde as substrate (conversion of L-alanine to pyruvate vs empty vector control)", "setting": "[1]", "value": "accepted adipate semialdehyde as substrate"}, {"measurement": "acceptance of 6-aminohexanoate as substrate (conversion of pyruvate to L-alanine vs empty vector control)", "setting": "[2]", "value": "accepted 6-aminohexanote as substrate"}]}
{"molecule": "B5", "values": [{"measurement": "acceptance of adipate semialdehyde as substrate (conversion of L-alanine to pyruvate vs empty vector control)", "setting": "[1]", "value": "accepted adipate semialdehyde as substrate"}]}
